Here are results for six substances from patent US20090215991A1.

In the first assay the target is extracellular region of human V158 FcγRIIIa with C-terminal 6xHis-tag and GST-tag (human) (UniProt P08637). Description: SPR.
Sequence of extracellular region of human V158 FcγRIIIa with C-terminal 6xHis-tag and GST-tag (human) (P08637 17-208 F176V): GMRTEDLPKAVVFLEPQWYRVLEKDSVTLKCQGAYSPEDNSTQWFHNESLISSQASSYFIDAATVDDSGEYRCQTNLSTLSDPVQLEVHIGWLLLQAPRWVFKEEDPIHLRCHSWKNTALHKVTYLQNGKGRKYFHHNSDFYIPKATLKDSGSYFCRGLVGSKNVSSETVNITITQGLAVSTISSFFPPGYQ
Substance E272R alemtuzumab (antibody) returned a Fold WT of 1.38 fold.

Turning to E283H alemtuzumab (antibody), the Fold WT worked out at 2.31 fold.

Consider S304T alemtuzumab (antibody), for which the Fold WT came to 12.8 fold.

In turn, V284E alemtuzumab (antibody) displayed a Fold WT of 1.51 fold.

A further assay deals with FcγRIIIa on human PBMCs expressing heterozygous V158/F158 FcγRIIIa (human) (UniProt P08637). Put plainly: cell-based or functional assay.
Sequence of FcγRIIIa on human PBMCs expressing heterozygous V158/F158 FcγRIIIa (human) (P08637 17-254): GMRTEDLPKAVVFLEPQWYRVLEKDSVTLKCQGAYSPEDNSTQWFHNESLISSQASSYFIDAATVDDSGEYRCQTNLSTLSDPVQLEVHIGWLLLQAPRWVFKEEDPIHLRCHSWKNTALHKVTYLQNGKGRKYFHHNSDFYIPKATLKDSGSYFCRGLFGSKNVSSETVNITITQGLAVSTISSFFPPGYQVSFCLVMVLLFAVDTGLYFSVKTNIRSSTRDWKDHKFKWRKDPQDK
With S239D/I332E alemtuzumab (antibody), the ADCC log(EC50), DoHH-2 target cells was 0.49 log(ng/ml).

On to V264I/I332E alemtuzumab (antibody), for which the ADCC log(EC50), DoHH-2 target cells is 0.6 log(ng/ml).
